Measurements reported in patent US20240254244A1 (QYUNS THERAPEUTICS, published 2024).

T1: Human IFNAR1 on cells (HEK Blue IFNα/β cells, Daudi cells, human whole blood) (human, UniProt P17181 28-557)
T1 sequence (looked up): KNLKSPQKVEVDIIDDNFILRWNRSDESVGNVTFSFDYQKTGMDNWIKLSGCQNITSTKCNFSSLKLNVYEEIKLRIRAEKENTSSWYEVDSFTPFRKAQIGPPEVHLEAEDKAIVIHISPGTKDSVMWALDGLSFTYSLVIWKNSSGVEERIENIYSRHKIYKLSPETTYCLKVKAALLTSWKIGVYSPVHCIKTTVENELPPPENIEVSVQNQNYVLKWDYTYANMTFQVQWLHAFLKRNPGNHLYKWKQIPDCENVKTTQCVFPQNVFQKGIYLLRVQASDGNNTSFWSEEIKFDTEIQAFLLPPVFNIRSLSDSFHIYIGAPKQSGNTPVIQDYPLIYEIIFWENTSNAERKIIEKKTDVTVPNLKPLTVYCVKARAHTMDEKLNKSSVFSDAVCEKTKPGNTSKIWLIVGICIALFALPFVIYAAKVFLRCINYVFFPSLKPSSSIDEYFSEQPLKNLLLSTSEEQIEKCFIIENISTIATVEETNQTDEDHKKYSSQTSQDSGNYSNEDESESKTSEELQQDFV

T2: Human interferon alpha receptor 1 (IFNAR1) (human, UniProt P17181 28-436)
T2 construct: Soluble antigen flowed over captured antibody in Biacore; also called human IFNAR1; Human Interferon alpha/beta Receptor 1
T2 sequence: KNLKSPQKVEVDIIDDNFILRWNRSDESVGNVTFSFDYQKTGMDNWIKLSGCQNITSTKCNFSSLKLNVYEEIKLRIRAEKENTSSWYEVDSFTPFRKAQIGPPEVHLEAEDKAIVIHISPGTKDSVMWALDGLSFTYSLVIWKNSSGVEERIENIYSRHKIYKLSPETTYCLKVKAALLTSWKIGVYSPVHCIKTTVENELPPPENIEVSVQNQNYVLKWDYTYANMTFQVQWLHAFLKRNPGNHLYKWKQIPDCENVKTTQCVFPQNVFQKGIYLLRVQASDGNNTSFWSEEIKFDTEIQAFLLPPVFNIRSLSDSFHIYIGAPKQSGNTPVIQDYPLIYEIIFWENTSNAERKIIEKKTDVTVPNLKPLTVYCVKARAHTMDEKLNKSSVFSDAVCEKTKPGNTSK


Legend:
[1] = molecular target: T1, Human IFNAR1 on cells (HEK Blue IFNα/β …); test: cell-based or functional assay
[2] = molecular target: T2, Human interferon alpha receptor 1 …; test: SPR, Biacore T200, antibody captured on Protein A chip, antigen as analyte, 25 C, 1:1 model, mean of three
Description: BiacoreT200 was used to detect the affinity between QX006N (HZD1203-45-IgG4.1) and human IFNAR1. All processes were performed at 25° C. A commercial Protein A chip was used to immobilize an appropriate amount of antibody through the capture method so that Rmax was around 50 RU and the capture flow rate was 10 μl/min. The antigen was gradient diluted, the flow rate of the instrument was switched to 30 μl/min, flowed through the reference channel and the fixed antibody channel in order of concentration from low to high, and flowed through buffer as the negative control. The chip was regenerated with pH1.5 glycine after each binding and dissociation was completed. The built-in analysis software of the instrument was used to select the 1:1 binding model in the Kinetics option for fitting, and the antibody's binding rate constant kₐ, dissociation rate constant kd, and dissociation equilibrium constant KD values were calculated.
The data in the table were: each sample was tested three times and the average value was calculated.

| Binder | EC50 of neutralising the effect of interferon (0.8 ng/ml IFNα.2b) on Daudi cell proliferation (CellTiter-Glo) [1] [µg/mL] | IC50 of inhibiting interferon (0.2 ng/ml IFNα.2b) induced STAT1/2 phosphorylation in HEK Blue IFNα/β reporter cells [1] [µg/mL] | IC50 of inhibiting interferon (8 ng/ml IFNα.2b with 40 ng/ml TNF-α) induced release of CXCL10/IP10 from human whole blood [1] [µg/mL] | Kd [2] [pM] | koff [2] [s⁻¹] | kon [2] [M⁻¹ s⁻¹] |
| --- | --- | --- | --- | --- | --- | --- |
| Anifrolumab (antibody, V domains shown) VH: EVQLVQSGAEVKKPGESLKISCKGSGYIFTNYWIAWVRQMPGKGLESMGIIYPGDSDIRYSPSFQGQVTISADKSITTAYLQWSSLKASDTAMYYCARHDIEGFDYWGRGTLVTVSS VL: EIVLTQSPGTLSLSPGERATLSCRASQSVSSSFFAWYQQKPGQAPRLLIYGASSRATGIPDRLSGSGSGTDFTLTITRLEPEDFAVYYCQQYDSSAITFGQGTRLEIKR | 0.0317 | 0.00443 | 0.562 | – | – | – |
| QX006N (HZD1203-45-IgG4.1) (antibody, V domains shown, Humanized rabbit antibody (clone 1203#) with human IgG4 constant region, expressed in ExpiCHO-S cells; also called anti-human interferon alpha receptor 1 (IFNAR1) monoclonal antibody of the present application) VH: EVQLVESGGGLVQPGGSLRLSCAASGFSLSSYYMTWVRQAPGKGLEWVSVINVYGGTYYASWAKGRFTISRDNSKNTLYLQMNSLRAEDTAVYYCAREDVAVYMAIDLWGQGTLVTVSS VL: AIQMTQSPSSLSASVGDRVTITCQASQSISNQLSWYQQKPGKAPKLLIYDASSLASGVPSRFSGSRSGTKFTLTISSLQPEDFATYYCLGIYGDGADDGIAFGGGTKVEIKR | 0.0299 | 0.00523 | 0.698 | 108 | 3.76e-05 | 347000 |
